This assay addresses recombinant S. pombe eIF2B, one set of the five subunits (α, β, γ, δ, ε), tags cleaved (S. pombe) (UniProt Q9USP0). Description: SEC; purified complex after HRV 3C cleavage of the tags; Sephacryl S-300, then Superose 6 with HMW calibration kit, buffer C (20 mM HEPES-KOH pH 7.5, 150 mM KCl, 5 % glycerol, 1 mM DTT), 277 K; SDS-PAGE of the purified complex. (SEC sorts molecules by how far they enter the pores of the column.)

One may read the stoichiometry N as a count of units in the complex or per binding partner. For the substance “recombinant S. pombe eIF2B, one set of the five subunits (α, β, γ, δ, ε), tags cleaved, Q9USP0 1-341; Q9UT76 1-393; P56288 1-458; Q09924 1-467; P56287 1-678”, the stoichiometry N is 2.

The values above are taken from PMC4833825.
